Test results reported in patent publication US20220025037A1 (DRAGONFLY THERAPEUTICS, published 2022).
Each block holds one molecule with its values, some of them ahead of it.

How the values were obtained:
[1] = biological target: recombinant human DLL3 (ELISA coat) (human) (UniProt Q9NYJ7); assay: ELISA on coated recombinant human DLL3, anti-mouse IgG-HRP
[2] = biological target: T1, DLL3 on RPMI-8226 cells transduced to express the full-length extracellular portion of DLL3 (UniProt Q9NYJ7 27-492, limits assumed); assay: flow cytometry on RPMI-8226 cells transduced to express DLL3, fluorophore-conjugated anti-human IgG secondary, MFI
T1 construct: extracellular domain; also called DLL3+ RPMI-8226 cells; cell surface DLL3
T1 sequence (looked up): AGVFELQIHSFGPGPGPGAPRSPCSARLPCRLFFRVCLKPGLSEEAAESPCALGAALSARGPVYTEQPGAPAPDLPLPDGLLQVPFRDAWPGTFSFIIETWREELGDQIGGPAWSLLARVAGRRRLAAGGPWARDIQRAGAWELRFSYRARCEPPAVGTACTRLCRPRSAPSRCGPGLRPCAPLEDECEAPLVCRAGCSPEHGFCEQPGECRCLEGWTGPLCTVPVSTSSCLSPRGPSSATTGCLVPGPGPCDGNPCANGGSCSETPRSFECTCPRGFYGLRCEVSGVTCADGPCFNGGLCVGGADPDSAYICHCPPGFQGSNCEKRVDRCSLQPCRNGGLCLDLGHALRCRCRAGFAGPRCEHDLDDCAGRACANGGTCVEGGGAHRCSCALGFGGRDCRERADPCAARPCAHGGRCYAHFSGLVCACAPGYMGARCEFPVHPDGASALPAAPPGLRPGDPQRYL
Experimental: To assess the binding of the mAbs to DLL3 positive cells, human myeloma cell line RPMI-8226 was transduced to express the full-length extracellular portion of DLL3. Anti-DLL3 mAbs were diluted and incubated with DLL3⁺ RPMI-8226 cells. The cells were analyzed by flow cytometry and binding of a mAb was detected using a fluorophore conjugated anti-human IgG secondary antibody.

[3] = biological target: T2, human DLL3-His (human, UniProt Q9NYJ7 27-492, limits assumed); assay: SPR (Biacore 8K), 37 C, antibody captured on anti-human Fc, human DLL3-His injected, 1:1 fit
T2 construct: also called hDLL3
T2 sequence (looked up): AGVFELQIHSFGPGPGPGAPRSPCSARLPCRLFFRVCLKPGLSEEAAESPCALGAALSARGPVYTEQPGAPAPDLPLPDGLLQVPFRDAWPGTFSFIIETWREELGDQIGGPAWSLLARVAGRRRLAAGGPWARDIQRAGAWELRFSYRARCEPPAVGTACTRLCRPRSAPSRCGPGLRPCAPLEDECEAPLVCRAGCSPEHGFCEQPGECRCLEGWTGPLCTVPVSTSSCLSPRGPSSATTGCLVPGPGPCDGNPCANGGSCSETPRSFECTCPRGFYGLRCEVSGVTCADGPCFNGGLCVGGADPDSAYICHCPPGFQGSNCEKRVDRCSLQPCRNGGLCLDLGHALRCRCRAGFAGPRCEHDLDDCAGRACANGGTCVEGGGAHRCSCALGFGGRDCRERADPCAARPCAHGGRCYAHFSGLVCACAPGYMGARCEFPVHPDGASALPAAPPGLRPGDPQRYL
From the text: (§1) The kinetics of binding of different humanized variants and parental murine 5E7 antibody to human DLL3-His was studied by Surface Plasmon Resonance using a Biacore 8K instrument. Briefly, anti-hFc and anti-mFc IgG proteins were covalently immobilized onto different channels of CM5 chip to allow simultaneous analysis of human and murine antibodies. m5E7 was captured on the anti-mouse Fc channel and humanized variants were captured on the anti-human Fc channel at a desired capture level of ˜56 RU in HBS-EP+ buffer supplemented with 0.1% BSA. Three buffer blanks and human DLL3-His (analyte) at concentrations 0.411-300 nM (in three fold dilutions) were injected over the surface with captured murine or humanized 5E7 for 300 second association time and let dissociate for 600 second at a flow rate of 30 μL/min. The surfaces were subjected to regeneration with three 20-second pulses of 10 mM glycine pH 1.70 at a flow rate of 100 μL/min between every concentration of analyte. The experiment was conducted at 37° C. Data were double referenced and a 1:1 fit model was applied to the sensorgrams in the Biacore Insight Evaluation software.
(§2) The kinetic parameters of human DLL3-His binding to murine and humanized variants of 5E7 antibody variants were calculated and shown in Table 12.

[4] = biological target: T2, human DLL3-His; assay: SPR (Biacore 8K), 37 C, antibody captured on anti-mouse Fc, human DLL3-His injected, 1:1 fit
From the text: as §1, §2

[5] = biological target: T3, recombinant human DLL4 (human, UniProt Q9NR61 27-524, limits assumed); assay: ELISA, plate coated with recombinant human DLL4 at 0.5 ug/ml, anti-mouse IgG-HRP/TMB, signal as % of positive control max
T3 construct: Coated on plates at 0.5 µg/ml
Experimental: To investigate the binding of anti-DLL3 antibodies to human DLL3, wells of high binding flat-bottom plates were coated with recombinant human DLL3 diluted to 0.5 μg/ml. To assess cross-reactivity of the antibodies to DLL1/DLL4, which are closely related family members to DLL3, plates were coated with recombinant human DLL1 diluted to 1 μg/ml, or human DLL4 diluted to 0.5 μg/ml. […] Binding was detected using anti-mouse IgG-HRP and 3,3′,5,5′-Tetramethylbenzidine (TMB) substrate. Signals were normalized to the corresponding positive control antibody.

T3 sequence (Q9NR61 27-524 limits assumed): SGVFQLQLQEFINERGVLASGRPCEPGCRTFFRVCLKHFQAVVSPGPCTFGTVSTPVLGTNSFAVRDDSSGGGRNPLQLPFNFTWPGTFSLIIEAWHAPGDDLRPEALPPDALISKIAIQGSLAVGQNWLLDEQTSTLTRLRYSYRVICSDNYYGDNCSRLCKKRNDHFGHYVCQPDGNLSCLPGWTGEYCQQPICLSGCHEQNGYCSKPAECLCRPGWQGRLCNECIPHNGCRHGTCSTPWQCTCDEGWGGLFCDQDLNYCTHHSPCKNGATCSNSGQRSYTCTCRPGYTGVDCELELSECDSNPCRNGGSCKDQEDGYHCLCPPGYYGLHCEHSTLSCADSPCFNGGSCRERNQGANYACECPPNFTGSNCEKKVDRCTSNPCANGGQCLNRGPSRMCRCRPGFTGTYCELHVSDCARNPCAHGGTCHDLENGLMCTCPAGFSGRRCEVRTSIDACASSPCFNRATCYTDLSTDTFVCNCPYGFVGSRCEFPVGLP

B1: humanized anti-DLL3 antibody h5E7 (antibody, V domains shown)
VH: QVQLVQSGAEVKKPGASVKVSCKASGFNIKDDYIHWVRQAPGQGLEWMGWIDSENGDTEYASKFQGRVTITADTSANTAYMELSSLRSEDTAVYYCATSSYYSYDLFVYWGQGTLVTVSS
VL: DVQMTQSPSSLSASVGDRVTITCKSSQSLLHSNGKTYLNWLQQKPGQAPKLLLYLVSKLESGVPSRFSGSGSGTDYTLTISSLQPEDFATYYCLQTTHLYTFGQGTKLEIK
notes: also called clone h5E7
EC50 (read off the curve) [2]: ~6 nM
Kd [3]: 8.7 nM

B2: humanized anti-DLL3 antibody h5E7-YD-C6 (antibody, V domains shown)
VH: QVQLVQSGAEVKKPGASVKVSCKASGFNIKDDYIHWVRQAPGQGLEWMGWIDSENGDTEYASKFQGRVTITADTSANTAYMELSSLRSEDTAVYYCATSEYYSYDLFVYWGQGTLVTVSS
VL: DVQMTQSPSSLSASVGDRVTITCKSSQSLLHSNGKTYLNWLQQKPGQAPKLLLYLVSKLESGVPSRFSGSGSGTDYTLTISSLQPEDFATYYCLQTTHLYTFGQGTKLEIK
notes: also called C6 variant
Kd [3]: 3.3 nM

B3: humanized anti-DLL3 antibody h5E7-YD-F3 (antibody, V domains shown)
VH: QVQLVQSGAEVKKPGASVKVSCKASGFNIKDDYIHWVRQAPGQGLEWMGWIDSENGDTEYASKFQGRVTITADTSANTAYMELSSLRSEDTAVYYCATSSYWSYDLLVYWGQGTLVTVSS
VL: DVQMTQSPSSLSASVGDRVTITCKSSQSLLHSNGKTYLNWLQQKPGQAPKLLLYLVSKLESGVPSRFSGSGSGTDYTLTISSLQPEDFATYYCLQTTHLYTFGQGTKLEIK
notes: also called F3 variant
Kd [3]: 1.2 nM

The remaining lines, values ahead:

EC50 [1]: 0.1 nM
Molecule: positive control antibody for DLL3 (R&D Systems-MAB4315)

Kd [4]: 1.2 nM
binding result [5]: binds
B4: murine anti-DLL3 antibody clone 5E7 (antibody, V domains shown)
VH: EVQLQQSGAELVRPGASVKLSCTASGFNIKDDYIHWVKQWPEQGLEWIGWIDSENGDTEYASKFQGKATMTADTSSNTAYLQLSGLTSEDTAVYYCTTSSYYSYDLFVYWGQGTLVTVSA
VL: DVLMTQTPLTLSVPIGQPASISCKSSQSLLHSNGKTYLNWLLQRPGQSPKLLIYLVSKLESGVPDRFSGSGSGTDFTLKISRVEAEDLGVYYCLQTTHLYTFGGGTKLEIK
notes: Mouse hybridoma antibody, captured by anti-mouse Fc; also called m5E7; murine 5E7
